Test results published in US20200188479A1 (INTARCIA THERAPEUTICS, published 2020).
Ends that are not written are not given here.

Target: fraction V human serum albumin (human, UniProt P02768 25-609)
Assay: cell-based or functional assay

Chain of fraction V human serum albumin (P02768 25-609 limits assumed): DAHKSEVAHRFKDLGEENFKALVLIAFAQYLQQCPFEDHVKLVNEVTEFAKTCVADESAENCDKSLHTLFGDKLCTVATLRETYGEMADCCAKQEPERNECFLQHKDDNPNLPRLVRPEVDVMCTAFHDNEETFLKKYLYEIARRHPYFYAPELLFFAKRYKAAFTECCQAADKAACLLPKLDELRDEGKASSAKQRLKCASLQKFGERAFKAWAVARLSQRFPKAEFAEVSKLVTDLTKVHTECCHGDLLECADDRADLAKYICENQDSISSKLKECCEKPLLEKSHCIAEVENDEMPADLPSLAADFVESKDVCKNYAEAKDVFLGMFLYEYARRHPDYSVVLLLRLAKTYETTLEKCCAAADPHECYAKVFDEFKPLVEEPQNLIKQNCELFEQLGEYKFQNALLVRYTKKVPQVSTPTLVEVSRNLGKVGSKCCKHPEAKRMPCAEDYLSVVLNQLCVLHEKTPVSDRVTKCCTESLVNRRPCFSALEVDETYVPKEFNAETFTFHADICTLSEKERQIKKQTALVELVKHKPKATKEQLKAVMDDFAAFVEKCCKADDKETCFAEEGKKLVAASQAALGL

B1: semaglutide (peptide)
peptide: HXEGTFTSDVSSYLEGQAAKEFIAWLVRGRG
modifications: Aib in position 8 (GLP-1 numbering); Lys carries N6-[N-(17-carboxy-1-oxoheptadecyl-L-c-glutamyl[2-(2-aminoethoxy)ethoxy]acetyl[2-(2-aminoethoxy)ethoxy]acetyl] residue (as printed in paragraph 217))
B1 was tested, and the “fold decrease in potency shift in 4% vs 0.1% albumin (cAMP accumulation in hGLP1R-expressing CHO-K1 cells)” value was 19.9 fold and the “reduction in potency in 4% vs 0.1% albumin, relative to the effect observed with GLP-1[7-36]NH2” value was 36.8 fold.

For HAEGTFTSDVSSYLEGQAAKEFIAWLVKGR-NH2 [human GLP-1[7-36]NH2], the “albumin-mediated change in potency for activation of GLP-1 receptors at 4% HSA versus 0.1% HSA” value was 0.54 fold (×) and the “potency shift in 4% vs 0.1% albumin (cAMP accumulation in hGLP1R-expressing CHO-K1 cells)” value was 1.8 fold.
